Our source for the Kd values is patent US20230183353A1 (ZYDUS LIFESCIENCES, published 2023).

The target of test [1] is T1, recombinant human neonatal Fc receptor (rhFcRn) (human, UniProt P55899 24-297; P61769 21-119).
T1 construct: Bought recombinant protein (Sino Biologics), immobilised on a GLC chip; also called Human FcRn; FcRn/FcGRT
The experiment in a line: SPR (ProteOn XPR36), rhFcRn immobilised on GLC chip, pH 6.0, 25 C. How it is done: The kinetic constants for the binding of Fc variants to recombinant human neonatal Fc receptor (rhFcRn) were determined by Surface Plasmon Resonance-based measurement using the ProteOn™ XPR36 (Bio-Rad). The rhFcRn receptor (Sino Biologics) was immobilized on a GLC chip following manufacturer's instruction. 10 mM phosphate buffer saline (PBS) (10 mM phosphate buffer, pH 6.0, 150 mM NaCl, with 0.005% Tweet 20) was used as running buffer to carry out the kinetic measurements. […] Reactions were carried in PBS (pH 6.0, 0.005% surfactant P20) at 25° C. After each sample run, the chip surface was regenerated using two pulses of PBS (0.005% surfactant P20), pH 7.4, followed by one pulse of glycine buffer pH 1.5. The data, in the form of sensograms, was analysed using the data-fitting programs in the ProteOn™ system.

Test [2] deals with T2, recombinant human FcγRIIIa (Phe) (human, UniProt P08637 17-208, limits assumed).
T2 construct: Directly immobilised on a GLC chip by amine coupling; also called FcγRIIIa F158; CD16a
T2 sequence (P08637 17-208 limits assumed): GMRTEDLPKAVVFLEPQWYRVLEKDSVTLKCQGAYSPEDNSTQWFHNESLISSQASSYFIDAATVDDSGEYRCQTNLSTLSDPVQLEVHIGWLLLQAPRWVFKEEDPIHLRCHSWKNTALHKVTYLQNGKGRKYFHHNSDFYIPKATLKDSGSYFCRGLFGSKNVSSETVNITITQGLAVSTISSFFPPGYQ
The experiment in a line: SPR (ProteOn), receptor immobilised on GLC chip by amine coupling, pH 7.4, 25 C. As to the method:
(§1) In this experiment, the kinetic constants for the binding of Fc variant to recombinant Fc gamma receptors were determined by Surface Plasmon Resonance-based measurement using the ProteOn™ […] (Bio-Rad). […] All the recombinant human Fc receptors were directly immobilized on a GLC sensor chip surface using a standard amine coupling chemistry, and essentially, following the manufacturers' instruction. 10 mM phosphate buffered saline (PBS) (10 mM phosphate buffer, pH 7.4, 150 mM NaCl, with 0.005% Tween 20) was used as the running buffer to carry out the kinetic measurements for all the Fc receptor. To measure the association rate constant (kassoc) and dissociation rate constant (kdissoc), five dilutions of Fc variants were prepared in above mentioned running buffer and injected at a flow rate of 50 μL/min. Association time and dissociation time at each interaction is mentioned in table below. All the reactions were performed at 25° C. The data, in the form of sensorgrams, were analyzed using the data-fitting programs available with the ProteOn™ system.

Test [3] has as its target T3, recombinant human FcγRIIIa (Val) (human, UniProt P08637 17-208, limits assumed).
T3 construct: Directly immobilised on a GLC chip by amine coupling; also called FcγRIIIa V158; CD16a
Described as above. How it is done:
as §1

In another test the target is recombinant mouse FcRn (mouse, UniProt Q61559 22-297). The experiment in a line: SPR (ProteOn XPR36), FcRn immobilised on GLC chip by amine coupling, pH 6.0, 25 C. As to the method:
(§2) In this experiment, binding of the Fc variant of the current invention to FcRn of different species was determined by surface plasmon resonance-based measurement using the ProteOn™ XPR36 (Bio-Rad). […] Fc variant used to conduct this experiment was produced using CHO cell as an expression system. FcRn (of different species) was immobilized on a GLC sensor chip surface using a standard amine coupling chemistry, and essentially, following the manufacturers' instruction. 10 mM phosphate buffered saline (PBS) (10 mM phosphate buffer, pH 6.0, 150 mM NaCl, 0.005% Tween 20) was used as the running buffer to carry out the kinetic measurements. To measure the association rate constant (kassoc) and dissociation rate constant (kdissoc), five dilutions of Fc muteins were prepared in above mentioned running buffer and injected at a flow rate of 100 μL/min with an association time of 180 s and dissociation time of 600 s. All the reactions were carried at 25° C. After each sample run, the chip surface was regenerated using PBST, pH 7.4. The data, in the form of sensorgrams, was analyzed using the data-fitting programs in the ProteOn™ system.

The next test has as its target recombinant monkey FcRn (monkey). The description is as above. As to the method:
as §2

The target of test [4] is T1, recombinant human neonatal Fc receptor …. Described as above. As to the method: as §2

Where a chain is given by its changes, count along the chain named. In names and notes the source's numbering stands.

T1 sequence (P55899 24-297 limits assumed, chain 1 of 2): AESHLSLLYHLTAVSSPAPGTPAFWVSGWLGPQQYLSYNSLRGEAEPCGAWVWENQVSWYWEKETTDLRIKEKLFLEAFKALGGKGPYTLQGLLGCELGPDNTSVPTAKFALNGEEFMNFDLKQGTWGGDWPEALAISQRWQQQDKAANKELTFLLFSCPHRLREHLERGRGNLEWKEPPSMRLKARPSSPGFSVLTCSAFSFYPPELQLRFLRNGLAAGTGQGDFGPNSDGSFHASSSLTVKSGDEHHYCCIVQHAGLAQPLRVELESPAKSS
T1 sequence (P61769 21-119 limits assumed, chain 2 of 2): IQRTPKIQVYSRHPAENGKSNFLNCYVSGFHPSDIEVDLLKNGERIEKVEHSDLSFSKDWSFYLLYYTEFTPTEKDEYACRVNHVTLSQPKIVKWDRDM
T3 sequence (P08637 17-208 F176V limits assumed): as the sequence (P08637 17-208 limits assumed) above, with F160V counted along it
Sequence of recombinant mouse FcRn (Q61559 22-297): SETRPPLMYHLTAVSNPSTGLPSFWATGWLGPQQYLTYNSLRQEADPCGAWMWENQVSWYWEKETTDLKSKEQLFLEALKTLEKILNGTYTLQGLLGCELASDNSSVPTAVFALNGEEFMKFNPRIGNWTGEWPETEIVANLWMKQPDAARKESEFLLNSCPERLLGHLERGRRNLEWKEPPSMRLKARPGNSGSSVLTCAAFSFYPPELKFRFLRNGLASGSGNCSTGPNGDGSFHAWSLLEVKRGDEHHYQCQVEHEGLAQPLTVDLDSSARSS
Sequence of recombinant monkey FcRn (monkey) (Q8SPV9 24-297, chain 1 of 2): as the sequence (P55899 24-297 limits assumed, chain 1 of 2) above, with N39D, E44Q, G99S, S189G, S190N, L217M, S269T counted along it
Sequence of recombinant monkey FcRn (monkey) (Q8SPW0 21-119, chain 2 of 2, further chain): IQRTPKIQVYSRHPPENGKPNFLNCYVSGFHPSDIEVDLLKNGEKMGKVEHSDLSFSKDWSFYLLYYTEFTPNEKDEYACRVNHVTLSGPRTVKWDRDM

B1: Fc variant F3-9 (SEQ ID No. 20; L432M/H433P/N434F) (other)
chain: DKTHTCPPCPAPELLGGPSVFLFPPKPKDTLMISRTPEVTCVVVDVSHEDPEVKFNWYVDGVEVHNAKTKPREEQYNSTYRVVSVLTVLHQDWLNGKEYKCKVSNKALPAPIEKTISKAKGQPREPQVYTLPPSRDELTKNQVSLTCLVKGFYPSDIAVEWESNGQPENNYKTTPPVLDSDGSFFLYSKLTVDKSRWQQGNVFSCSVMHEAMPFHYTQKSLSLSPGK
Broadly, the Kd is the equilibrium constant for the complex coming apart. Regarding B1, the Kd in test [1] came out at 3.63 nM.

B2: Fc variant H11+A4 (SEQ ID No. 22; T307N/V308P/L309Y/H433R/N434W), Fc monomer (other)
chain: B1 chain with T87N, V88P, L89Y, M212L, P213R, F214W
notes: also called 22b
Consider B2, for which the Kd was 0.288 nM in test [1]; 241 nM in test [2]; 205 nM in test [3]; 0.615 nM in the test with recombinant mouse FcRn; 0.801 nM with recombinant monkey FcRn; 0.791 nM in test [4].
